Type in all cases: cell-based
The subject of one test is RAJI-CD19-KO cells. Briefly: JNG assay, co-culture with RAJI-CD19-KO cells. Particulars: co-culture with Raji-CD19-KO. The gist of the method: (§1)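 Read-out is NFAT-driven GFP measured by flow cytometry after ~4–18 h co-culture of SAR-expressing JNG cells with target cells (E:T about 1:2). SARs were introduced by lentiviral spinfection and selected with puromycin or blasticidin when possible; scores (+/- to 5+ ≈ 5–50% GFP+) are relative to parental JNG cells.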

The next test deals with L363 cells. Briefly: JNG assay, co-culture with L363 cells. Particulars: co-culture with L363. In outline:
as §1

Another test has as its system Nalm6 cells. Briefly: JNG assay, co-culture with Nalm6 cells. As to conditions: co-culture with Nalm6. The gist of the method:
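Jurkat NFAT-GFP reporter cells stably expressing lentivirally delivered SARs (puromycin or blasticidin selection) were cocultured with target cells at E:T ~1:2 for ~4–18 h. GFP was read by FACS, and % GFP+ cells were scored against parental reporter cells (+/-, +, 2+…5+ ≈ 5%, 10%, 20%…50%).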

Another test deals with RAJI cells. Briefly: JNG assay, co-culture with RAJI cells. Particulars: JNG cells expressing construct, co-culture with Raji. In outline:
as §1

In the next test the test system is RS;411. Nature of the test: JNG assay, co-culture with RS;411 cells. As to conditions: co-culture with RS411. The gist of the method: as §1
A further test deals with LNCaP cells. Nature of the test: JNG assay, co-culture with LNCaP cells. As to conditions: LNCaP cells, only in the presence of SAR-adaptor PSMA-USC76-chVH-G4S-ULBP2-S3 (SEQ ID NO: 23114). Here is the method: Cellular supernatant is collected and assayed for the induction of cytokines (e.g., IL2).
JNG (Jurkat cells expressing EGFP under an NFAT promoter) were infected with lentiviral vectors encoding different single chain and multi-chain SARs by spinfection in the presence of 8 µg/ml of Polybrene® (Sigma, Catalog no. H9268). The Jurkat-NFAT-GFP cells are engineered in such a way that the IL-2 promoter, which carries NFAT binding sites, is cloned upstream of the GFP gene. These cells have been used to study signaling via TCR and CAR. The different SARs were stably expressed in Jurkat NFAT-GFP cells by lentiviral mediated gene transfer, followed by selection with puromycin or blasticidin. No drug selection was used in case the construct lacked an antibiotic resistance gene. The SAR-expressing Jurkat-NFAT-GFP cells were cocultured with the target cells at E:T ratio of approximately 1:2 for approximately 4 hours to 18 hours. When the interaction between SIRs and their target antigen results in activation of the NFAT pathway, GFP expression is induced. […] GFP expression was monitored by FACS analysis. The Jurkat-NFAT-GFP (parental) cells were used as control. The structure of different constructs can be determined based on their names. For example, the construct CD8SP-CD19-hu-mROO5-1-vL-[hTCRa-C SDVP]-F-F2A-Spe-IgHSP-Apa-CD20-vHH-2HCD25-G4S-CDl9-hu-mROO5-1-vH-Mlu-[hTCRb-KACIAH]-F-P2A-PAC has the following modules from 5′ to 3′ direction: a CD8 signal peptide (CD8SP), the CD19 targeting hu-mROO5-1 vL fragment (CD19-hu-mROO5-1), Xho1 cloning site, human TCRa constant chain containing CSDVP mutations (hTCRa-CSDVP), Furine cleavage site (F), F2A ribosomal skip sequence (F2A), SpeI site, human IgH signal peptide (IgHSP), Apa I restriction enzyme site, camelid CD20-2HCD25-VHH module targeting CD20, BamHI restriction enzyme site, Glycinex4-serine linker (G4S), BstI restriction enzyme site, CD19-hu-mROO5-1-vH fragment targeting CD19, Mlu I restriction enzyme site, human TCRb constant chain containing KACIAH mutations ([hTCRb-KACIAH]), Furine cleavage site (F), P2A ribosomal skip sequence and Puromycin resistance gene (PAC). The sequence of the other constructs in the table can be similarly determined from their names and by referring to the different Tables of this disclosure that provide the names and SEQ ID NO of the different modules. Alternatively, the composition and modular architecture of the different SAR constructs can be determined from their sequences by bioinformatics tools, including using nucleic acid and amino acids homology searches. A SAR is considered positive in the assay in case the SAR expressing Jurkat-NFAT-GFP cells show greater % GFP positive cells when cultured with the target cell line as compared to parental Jurkat-NFAT-GFP cells. The signs +/-, +, 2+ etc. after the name of the cell lines indicate the relative degree of positivity on the Jurkat-NFAT-GFP assay as measured by the % GFP positive cells after culture of the SAR expressing Jurkat-NFAT-GFP cells with that cell line above the % GFP cells observed in parental Jurkat NFAT-GFP cells serving as controls. In general, the number +/-, +, 2+, 3+, 4+, 5+ refer to approximately 5%, 10%, 20%, 30%, 40% and 50% GFP positive cells. The % of GFP induction in the above assay is dependent not only the relative strength of the SAR but also, among other factors, on the relative level of expression of the SAR in the JNG cells and the relative level of expression of the target antigen in the target cell line. To control for the difference in gene transduction efficiency of the different SAR constructs, the experiment was conducted with JNG cells transduced with SAR constructs co-expressing a drug resistance gene (e.g., puromycin or PAC) followed by drug selection to generate a stable population of SAR-expressing cells. […]

B1: 22140 (protein)
chain: MALPVTALLLPLALLLHAARPACEVQLLESGGGLIQPGGSLRLSCAASGFTFSSHAMTWVRQAPGKGLEWVSAISGSGDYTHYADSVKGRFTISRDNSKNTVYLQMNSLRAEDSAVYYCAKDEDGGSLLGHRGQGTLVTVSSGTGGGGSGGGGSGGGGSEFDIQMTQSPSSLSASVGDRVTITCKASDHINNWLAWYQQKPGQAPKLLIYGATTLETGVPSRFSGSGSGTDYTLTISSLQPEDFATYYCQQSWNTPWTFGQGTKLEIKRLEGQPKANPTVTLFPPSSEELQANKATLVCLISDFYPGAVTVAWKADGSPVKAGVETTKPSKQSNNKYAASSYLSLTPEQWKSHRSYSCQVTHEGSTVEKTVAPTECSGRADCGFTSESYQQGVLSATILYEILLGKATLYAVLVSALVLMAMVKRKDSRGRAKRSGSGATNFSLLKQAGDVEENPGPTSATMDWIWRILFLVGAATGAHSGPQVQLQESGGGLAQAGGSLRLSCAASGRTFSMGWFRQAPGKEREFVAAITYSGGSPYYASSVRGRFTISRDNAKNTVYLQMNSLKPEDTAVYYCAANPTYGSDWNAENWGQGTQVTVSSGSGGGGSGGGGSGGGGSFEQVQLQQPGAELVKPGASVKMSCKASGYAFSSYWINWMKQKPGQGLEWIGQIYPGDGDTNYNGKFKGRATLTADTSSSTAYMQLSSLTSEDSAVYFCARSITTVVGCAMDYWGQGTSVTVSSTRASTKGPSVFPLAPSSKSTSGGTAALGCLVKDYFPEPVTVSWNSGALTSGVHTFPAVLQSSGLYSLSSVVTVPSSSLGTQTYICNVNHKPSNTKVDKRVEPKSCIPEDTFFPSPESSCDVKLVEKSFETDTNLNFQNLSVIGFRILLLKVAGFNLLMTLRLWSSRAKRSGSGVKQTLNFDLLKLAGDVESNPGPSRGHMTEYKPTVRLATRDDVPRAVRTLAAAFADYPATRHTVDPDRHIERVTELQELFLTRVGLDIGKVWVADDGAAVAVWTTPESVEAGAVFAEIGPRMAELSGSRLAAQQQMEGLLAPHRPKEPAWFLATVGVSPDHQGKGLGSAVVLPGVEAAERAGVPAFLETSAPRNLPFYERLGFTVTADVEVPEGPRTWCMTRKPGA
As for B1, the “NFAT-GFP ASSAY: Raji-CD19-KO” value in the test with RAJI-CD19-KO cells is 4+ (refer to approximately 5%, 10%, 20%, 30%, 40% and 50% GFP positive cells). Also, the “NFAT-GFP ASSAY: L363” value in the test on L363 cells was 2+ (refer to approximately 5%, 10%, 20%, 30%, 40% and 50% GFP positive cells). Besides, the “NFAT-GFP ASSAY: Nalm6” value in the test with Nalm6 cells was 5+ (refer to approximately 5%, 10%, 20%, 30%, 40% and 50% GFP positive cells). In addition, the “NFAT-GFP ASSAY: Raji” value in the test with RAJI cells was 5+ (refer to approximately 5%, 10%, 20%, 30%, 40% and 50% GFP positive cells). Further, the “NFAT-GFP ASSAY: RS411” value in the test on RS;411 is 4+ (refer to approximately 5%, 10%, 20%, 30%, 40% and 50% GFP positive cells).

B2: SEQ ID NO: 22289: NKG2D-YA fused directly to TCRb constant chain without an Ig linker (protein)
chain: MALPVTALLLPLALLLHAARPACLFNQEVQIPLTESYCGPCPKNWICYKNNCYQFFDESKNWYESQASCMSQNASLLKVYSKEDQDLLKLVKSAHWMGLVHIPTNGSWQWEDGSILSPNLLTIIEMQKGDCALYASSFKGYIENCSTPNTYICMQRTVLEDLKNVFPPEVAVFEPSEAEISHTQKATLVCLATGFYPDHVELSWWVNGKEVHSGVCTDPQPLKEQPALNDSRYCLSSRLRVSATFWQNPRNHFRCQVQFYGLSENDEWTQDRAKPVTQIVSAEAWGRADCGFTSESYQQGVLSATILYEILLGKATLYAVLVSALVLMAMVKRKDSRGRAKRSGSGATNFSLLKQAGDVEENPGPTSMDWIWRILFLVGAATGAHSFEDLFNQEVQIPLTESYCGPCPKNWICYKNNCYQFFDESKNWYESQASCMSQNASLLKVYSKEDQDLLKLVKSAHWMGLVHIPTNGSWQWEDGSILSPNLLTIIEMQKGDCALYASSFKGFIENCSTPNTYICMQRTVTRIQNPDPAVYQLRDSKSSDKSVCLFTDFDSQTNVSQSKDSDVYITDKCVLDMRSMDFKSNSAVAWSNKSDFACANAFNNSIIPEDTFFPSPESSCDVKLVEKSFETDTNLNFQNLSVIGFRILLLKVAGFNLLMTLRLWSSRAKRSGSGVKQTLNFDLLKLAGDVESNPGPSRGHMTEYKPTVRLATRDDVPRAVRTLAAAFADYPATRHTVDPDRHIERVTELQELFLTRVGLDIGKVWVADDGAAVAVWTTPESVEAGAVFAEIGPRMAELSGSRLAAQQQMEGLLAPHRPKEPAWFLATVGVSPDHQGKGLGSAVVLPGVEAAERAGVPAFLETSAPRNLPFYERLGFTVTADVEVPEGPRTWCMTRKPGA
Regarding B2, the GFP induction entry in the test with LNCaP cells is “failed to show GFP induction”.

B3: 22129 (protein)
chain: MALPVTALLLPLALLLHAARPEVQVLESGGGLVQPGGSLRLSCAASGFTFSNFAMSWVRQAPGKGLEWVSTISGSAGTTDYADSVKGRFTISRDNSKKTLYLQMNSLRVEDTAVYYCADGRGPFFDYRGQGTLVTVSSGTGGGGSGGGGSGGGGSEFDIQMTQSPSSLSASVGDRVTITCKASDHINNWLAWYQQKPGQAPKLLIYGATTLETGVPSRFSGSGSGTDYTLTISSLQPEDFATYYCQQSWNTPWTFGQGTKLEIKRLEIQNPDPAVYQLRDSKSSDKSVCLFTDFDSQTNVSQSKDSDVYITDKCVLDMRSMDFKSNSAVAWSNKSDFACANAFNNSIIPEDTFFPSSDVPCDVKLVEKSFETDTNLNFQNLSVIGFRILLLKVAGFNLLMTLRLWSSRAKRSGSGVKQTLNFDLLKLAGDVESNPGPTSATMDWIWRILFLVGAATGAHSGPQVQLQESGGGLAQAGGSLRLSCAASGRTFSMGWFRQAPGKEREFVAAITYSGGSPYYASSVRGRFTISRDNAKNTVYLQMNSLKPEDTAVYYCAANPTYGSDWNAENWGQGTQVTVSSGSGGGGSGGGGSGGGGSFEQVQLQQPGAELVKPGASVKMSCKASGYAFSSYWINWMKQKPGQGLEWIGQIYPGDGDTNYNGKFKGRATLTADTSSSTAYMQLSSLTSEDSAVYFCARSITTVVGCAMDYWGQGTSVTVSSTREDLKNVFPPEVAVFEPSKAEIAHTQKATLVCLATGFYPDHVELSWWVNGKEVHSGVCTDPQPLKEQPALNDSRYCLSSRLRVSATFWQNPRNHFRCQVQFYGLSENDEWTQDRAKPVTQIVSAEAWGRADCGITSASYHQGVLSATILYEILLGKATLYAVLVSALVLMAMVKRKDSRGRAKRSGSGATNFSLLKQAGDVEENPGPSRGHMTEYKPTVRLATRDDVPRAVRTLAAAFADYPATRHTVDPDRHIERVTELQELFLTRVGLDIGKVWVADDGAAVAVWTTPESVEAGAVFAEIGPRMAELSGSRLAAQQQMEGLLAPHRPKEPAWFLATVGVSPDHQGKGLGSAVVLPGVEAAERAGVPAFLETSAPRNLPFYERLGFTVTADVEVPEGPRTWCMTRKPGA
With B3, the “NFAT-GFP ASSAY: Raji-CD19-KO” value in the test on RAJI-CD19-KO cells is “Raji (+), Raji-CD19-KO (+), Nalm6 (+), L363 (+), RS411 (+) (refer to approximately 5%, 10%, 20%, 30%, 40% and 50% GFP positive cells)”. In addition, in the test with L363 cells, the “NFAT-GFP ASSAY: L363” value was “Raji (+), Raji-CD19-KO (+), Nalm6 (+), L363 (+), RS411 (+) (refer to approximately 5%, 10%, 20%, 30%, 40% and 50% GFP positive cells)”. Also, the “NFAT-GFP ASSAY: Nalm6” value in the test with Nalm6 cells is “Raji (+), Raji-CD19-KO (+), Nalm6 (+), L363 (+), RS411 (+) (refer to approximately 5%, 10%, 20%, 30%, 40% and 50% GFP positive cells)”. Further, the “NFAT-GFP ASSAY: Raji” value with RAJI cells is “Raji (+), Raji-CD19-KO (+), Nalm6 (+), L363 (+), RS411 (+) (refer to approximately 5%, 10%, 20%, 30%, 40% and 50% GFP positive cells)”. Besides, the “NFAT-GFP ASSAY: RS411” value with RS;411 is “Raji (+), Raji-CD19-KO (+), Nalm6 (+), L363 (+), RS411 (+) (refer to approximately 5%, 10%, 20%, 30%, 40% and 50% GFP positive cells)”.

For the origin of these results see patent US20230212319A1, “NOVEL ANTIGEN BINDING DOMAINS AND SYNTHETIC ANTIGEN RECEPTORS INCORPORATING THE SAME” (University of Southern California, priority 2020, published 2023).
